Results as given in patent US20110086767A1, “MUTANTS OF GLYCOSIDE HYDROLASES AND USES THEREOF FOR SYNTHESIZING COMPLEX OLIGOSACCHARIDES AND DISACCHARIDE INTERMEDIATES” (Institut Pasteur, priority 2008, published 2011).

What was measured:
Assay type in all cases: biochemical
[1] = Kinetic parameters towards α-D-GlcpNAc-OAll acceptor; conditions: 250 mM for both sucrose and α-D-GlcpNAc-OAll
Experimental: Enzyme assays were carried out in a total volume of 2 mL containing pure enzyme (0.037 mg, 0.076 mg and 0.046 mg when using A289P-F290C, A289P-F2901 and A289P-F290L, respectively).
The kcat/Km (α-D-GlcpNAc-OAll) value was calculated from the initial rate of formation of desired disaccharide (α-D-Glcp-(1→4)-α-D-GlcpNAc-OAll), corresponding to the initial rate of α-D-GlcpNAc-OAll consumed. As saturation was not achieved with the mutants, efficiency was calculated by linear regression analysis of the velocity versus substrate concentration plot.

[2] = HPLC screening of the single-mutant amylosucrase library for glucosylation of D-GlcpNAc; conditions: acceptor D-GlcpNAc
Experimental: The protocol was established to enable the rapid identification of clones for which D-GlcpNAc glucosylation was improved. To obtain higher amounts of enzymes and facilitate detection of glucosylated compounds upon HPLC screening, mutants were produced in 96-DeepWell Format plates. Storage microplates containing monomutants were thawed and replicated to inoculate a starter culture in 96-well microplates containing, in each well, 150 μL LB medium supplemented with ampicillin (100 μg/mL). After growth for 24 h at 30° C. under agitation (200 rpm), plates were duplicated into 96-Deep Well plates containing, in each well, 1.1 mL LB medium supplemented with ampicillin (100 μg/mL) and IPTG (1 mM) to induce GST-AS expression. Cultures were then grown for 24 h at 30° C. under agitation (200 rpm). Plates were centrifuged (20 min, 3000 g, 4° C.) and the supernatant was removed. The cell pellet was resuspended in 200 μL of lysozyme (0.5 mg/mL), followed by freezing at −80° C. for 8 to 12 h. After thawing at room temperature, 100 μL of sucrose and 100 μL of acceptor (each at a final concentration of 73 mM) were added to each well. Enzymatic reaction was incubated at 30° C. during 24 h under agitation. The DeepWell plates were then centrifuged (20 min, 3000 g, 4° C.) and 300 μL of the supernatant was transferred to a filter micro-plate (PVDF 0.2 μm) to be clarified. […]
Efficiency of the glucosylation reaction was evaluated by HPLC analysis of the acceptor reaction product synthesized when using D-GlcpNAc as acceptor using a Dionex P 680 series pump, a Shodex RI 101 series refractometer, a Dionex UVD 340 UV/Vis detector and an autosampler HTC PAL. […]
For each of the 7 selected positions, 19 single mutants were generated (corresponding to each possible amino acid change). […] Both sucrose consumption and disaccharide formation were determined in order to calculate the glucosylation rate defined as the molar ratio of monoglucosylated acceptor versus/sucrose consumed.

[3] = HPLC screening of double-mutant libraries for variants able to glucosylate D-GlcpNAc; conditions: α-D-Glcp-(1→4)-α-D-GlcpNAc (ED) from sucrose and D-GlcpNAc, microplate format
[4] = Product profile with 146 mM sucrose alone (HPAEC); conditions: t=24 h
Experimental: Comparison of products synthesized by wild-type and AS variants. Reactions were performed in the presence of 146 mM sucrose alone or supplemented with 146 mM acceptor. The purified wild-type or mutated GST/AS were employed at 0.5 U/mL. The reactions were stopped by heating at 95° C. for 5 min. The final mixture was centrifuged at 18 000 g for 10 min, filtered on 0.22 μm membrane and analyzed by HPLC, as previously described.
Soluble and insoluble oligosaccharides produced during the reaction were identified by HPAEC using a Dionex Carbo-Pack PA100 column at 30° C. Before analysis, the insoluble fraction was solubilized in KOH at a final total sugar concentration of 10 g/kg. Mobile phase (150 mM NaOH) was set at 1 mL/min flow rate with a sodium acetate gradient (going from 6 to 500 mM within 120 min). Detection was performed using a Dionex ED40 module with a gold working electrode and an Ag/AgCl pH reference. Note that α-D-GlcpNAc-OAll (acceptor) and its derivatives are not oxidable products and thus are not detectable by HPAEC. Sucrose, glucose, fructose, α-D-GlcpNAc-OAll (acceptor) and its derivatives (glucosylation products) were quantified by HPLC, as previously described

B1: F290K: single mutant F290K of N. polysaccharea amylosucrase 1G5A (protein)
chain: SPNSQYLKTRILDIYTPEQRAGIEKSEDWRQFSRRMDTHFPKLMNELDSVYGNNEALLPMLEMLLAQAWQSYSQRNSSLKDIDIARENNPDWILSNKQVGGVCYVDLFAGDLKGLKDKIPYFQELGLTYLHLMPLFKCPEGKSDGGYAVSSYRDVNPALGTIGDLREVIAALHEAGISAVVDFIFNHTSNEHEWAQRCAAGDPLFDNFYYIFPDRRMPDQYDRTLREIFPDQHPGGFSQLEDGRWVWTTFNSFQWDLNYSNPWVFRAMAGEMLFLANLGVDILRMDAVAKIWKQMGTSCENLPQAHALIRAFNAVMRIAAPAVFFKSEAIVHPDQVVQYIGQDECQIGYNPLQMALLWNTLATREVNLLHQALTYRHNLPEHTAWVNYVRSHDDIGWTFADEDAAYLGISGYDHRQFLNRFFVNRFDGSFARGVPFQYNPSTGDCRVSGTAAALVGLAQDDPHAVDRIKLLYSIALSTGGLPLIYLGDEVGTLNDDDWSQDSNKSDDSRWAHRPRYNEALYAQRNDPSTAAGQIYQDLRHMIAVRQSNPRFDGGRLVTFNTNNKHIIGYIRNNALLAFGNFSEYPQTVTAHTLQAMPFKAHDLIGGKTVSLNQDLTLQPYQVMWLEIA
With B1 the “V250mM (initial rate of acceptor consumption)” value [1] was 6690 µmol/min/g, the “increase of glucosylation rate compared to the wild type” value [2] was 45 fold and the “Glusosylation Yield to synthesize ED” value ([3]; listed as DM4_P2_D12) was 41%. The “Glusosylation Yield to synthesize ED” value ([3]; listed as DM4_P2_H4) was 42% and the “length of maltooligosaccharides synthesized in the absence of acceptor” value [4] was ≤ 20 DP.
